Test results as given in the supplement of paper PMC12042874.
± gives the uncertainty stated by the source.

Assay: amyloid nucleation score (Sup35N fusion, yeast selection) (log enrichment); library NNK2; higher = more nucleation; inactive = no reads after selection
How it was run: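 DiMSum was used to calculate nucleation scores as log enrichment of output over input reads, centred on the mode score of non-aggregating sequences. Sequences with fewer than 100 input reads were not scored. Input and output came from Illumina sequencing of plasmid inserts in psi-negative yeast expressing peptides of 20 random codons fused to Sup35N, induced 24 hours with 100 μM copper sulfate and then grown 7 days at 30°C on medium lacking adenine and uracil.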
For TRDILGRGVDQFFIVSYRFN, the amyloid nucleation score was -1.11 ± 0.45.
HNRYYGVIYVSLKICKLAFR gave an amyloid nucleation score of 6.476 ± 0.027.
In the case of KSVTVGADHNVDVGVAEMIR, the amyloid nucleation score is reported as 1.79 ± 0.32.
MGVDLPIASLCSNCGEAGLG gave an amyloid nucleation score of 0.199 ± 0.43.
Work on TTIFYKPLQCLLGLFFYP yielded an amyloid nucleation score of -0.623 ± 1.
In the case of VSGLPN, the amyloid nucleation score is reported as “inactive”.
LNYLCVHTLIACVSWVPVSA showed an amyloid nucleation score of 2.36 ± 0.23.
With IKGTQSVRDTVSLVVIKDVW the amyloid nucleation score was 0.627 ± 0.4.
GQPRLRSY gave an amyloid nucleation score of 3.89 ± 0.1.
VPTLCLVLDRLLDSNR gave an amyloid nucleation score of -1.39 ± 0.62.
For LSALCGIGCDCLPTLTKLIV, the amyloid nucleation score was -0.089 ± 0.25.
Work on CALFLFRKVLVLIT yielded an amyloid nucleation score of -1.48 ± 0.55.
In the case of YTCRYRFTLNQTSSRRFSFW, the amyloid nucleation score is reported as 1.35 ± 0.13.
RAQFIQLGDEYYTRC gave an amyloid nucleation score of 0.564 ± 0.49.
Substance VLSLLMPVVRIVWKFN has an amyloid nucleation score of -0.084 ± 0.76.
For THCFCGTNGWVMWGSPEGLA, the amyloid nucleation score was 0.179 ± 0.55.
GSGGWLAGHKTVK gave an amyloid nucleation score of 0.174 ± 1.
IEPKHWIYTSGGLTRGRLYG showed an amyloid nucleation score of 0.073 ± 1.1.
In the case of WFENNDESMGQEWNKHCTSV, the amyloid nucleation score is reported as 0.718 ± 0.24.
SALCAYIQSLFNDCRTLDKW gave an amyloid nucleation score of -0.5 ± 0.44.
In the case of RNLDFIA, the amyloid nucleation score is reported as 3.33 ± 0.068.
NNKTKPVVFILSMYNYERFS gave an amyloid nucleation score of 2.12 ± 0.25.
In the case of LFDGRNYF, the amyloid nucleation score is reported as -0.669 ± 0.46.
For HTSSLF, the amyloid nucleation score was -0.156 ± 0.3.
LRRSTKSSCGVRCWVIEMGS gave an amyloid nucleation score of 0.138 ± 1.1.
RYRSTLQYISVMGLDNT showed an amyloid nucleation score of -0.608 ± 0.54.
HSRKFADVKSWLTTDKKRIR showed an amyloid nucleation score of 0.37 ± 0.48.
Work on YMDMWGR yielded an amyloid nucleation score of -0.81 ± 0.41.
RKSYGRSWSSGNLYYNLHGD showed an amyloid nucleation score of -1.18 ± 1.1.
Work on YNKWLMASLPRIVGT yielded an amyloid nucleation score of -0.47 ± 1.1.
KIISNSFCSPCINSILPSKM gave an amyloid nucleation score of 6.826 ± 0.053.
In the case of RVFSLDWVIERMSVEFHSWG, the amyloid nucleation score is reported as “inactive”.
HRDKLKVSPQITRSSFRRLS showed an amyloid nucleation score of 0.423 ± 0.26.
Work on FKFYSRSAYSHHRFSIYCDR yielded an amyloid nucleation score of -1.22 ± 1.1.
SLFDFAVFNMNYESNACISR gave an amyloid nucleation score of 0.451 ± 0.27.
With YNKGNACISGYYGCSLA the amyloid nucleation score was 7.41 ± 0.083.
Substance SPYLMSTDKIRLSP has an amyloid nucleation score of 1.16 ± 0.44.
LMDRLFMKCDGLAG gave an amyloid nucleation score of 0.216 ± 0.53.
Work on NSVFKGFLNRFRF yielded an amyloid nucleation score of 2.32 ± 0.19.
Work on KVFSNIVMLLSVRLCCLMKI yielded an amyloid nucleation score of -1.58 ± 1.1.
For PCGSCMSQNKSIG, the amyloid nucleation score was 0.167 ± 0.31.
EFMLSVRKVVPRIYGNNPRV gave an amyloid nucleation score of 2.78 ± 0.084.
In the case of PEQAVFTNNKYIYEVWLTTK, the amyloid nucleation score is reported as “inactive”.
SRGSYIPSPLRHSFSVLWRF gave an amyloid nucleation score of -0.785 ± 0.63.
With RSYLVFYTRYLTFNGPSTKF the amyloid nucleation score was 7.79 ± 0.08.
With LNFKWANCVFVDSNCQQ the amyloid nucleation score was 3.13 ± 0.17.
For LFMKRER, the amyloid nucleation score was -0.179 ± 0.76.
Work on HKVQLVWPFVYLVEVQRRSG yielded an amyloid nucleation score of 2.85 ± 0.089.
TLAWRSGTRRELKEECNGGW gave an amyloid nucleation score of 1.19 ± 0.59.
With YWTPISFVY the amyloid nucleation score was -1.09 ± 0.64.
For YFVVL, the amyloid nucleation score was -1.78 ± 0.62.
In the case of LLRRNFNYVYIIYLILSSPV, the amyloid nucleation score is reported as “inactive”.
Substance IRYDLQQGQFPPTRMECLVL has an amyloid nucleation score of 0.437 ± 0.27.
For CIRTDFGA, the amyloid nucleation score was -0.086 ± 0.35.
Work on PMDEWHSFPLQNKLRVIGCG yielded an amyloid nucleation score of 0.115 ± 0.23.
DRYWLERWSDGNCGRSARIR showed an amyloid nucleation score of 1.22 ± 0.4.
Work on FIPYKYAVHSS yielded an amyloid nucleation score of 0.166 ± 0.62.
In the case of IWIKVTRLRVGFLKRVLVVA, the amyloid nucleation score is reported as -1.44 ± 0.55.
Work on SILLLIKVYFWGLCNPMILA yielded an amyloid nucleation score of -1.65 ± 1.
For VIGAGCIEKQRTVEAGGCRG, the amyloid nucleation score was 1.23 ± 0.35.
With WSFLYE the amyloid nucleation score was -0.548 ± 0.33.
RGKYAITCVMLWK gave an amyloid nucleation score of 5.769 ± 0.054.
LILSSSSLVGVALRRVYCVT gave an amyloid nucleation score of -0.809 ± 0.34.
In the case of TGTFSAKLVDTPEGYYLLSV, the amyloid nucleation score is reported as -1.01 ± 0.41.
ISCCDRGCDAYLEVWPKLNK gave an amyloid nucleation score of -0.523 ± 1.
LISGRMHNVCEPGAKSRTLR gave an amyloid nucleation score of 0.76 ± 0.18.
Substance LLMMRGSRVSNS has an amyloid nucleation score of -0.763 ± 0.39.
WDIIF showed an amyloid nucleation score of -1.45 ± 0.34.
For CLFVTVGFCICCLFFLWFCL, the amyloid nucleation score was 5 ± 0.1.
Work on NASPFSHKYHEWFEVEGSSI yielded an amyloid nucleation score of 0.108 ± 0.65.
With RLFTWIFPTGNTGF the amyloid nucleation score was 8.831 ± 0.074.
CYMTFYVMLTLDRTQSHSGH gave an amyloid nucleation score of 7.411 ± 0.051.
Substance FGVRDDILDSWCCTVCFSGK has an amyloid nucleation score of 0.369 ± 0.65.
With FIYQFHVVFLVCQGHNNLYT the amyloid nucleation score was 3.6 ± 0.071.
For SRDVAAYNRRRRFAVLGWGE, the amyloid nucleation score was 0.44 ± 0.38.
In the case of IWTDVRLGGRDIVLDSRVYF, the amyloid nucleation score is reported as 2.14 ± 0.098.
In the case of PSIDSCRGRLVVRVQIRVEN, the amyloid nucleation score is reported as -1.24 ± 1.1.
Work on LDATNSKNVYRMPAWKGNMR yielded an amyloid nucleation score of 0.564 ± 0.32.
SVIIQLSYTRGYWLLQA gave an amyloid nucleation score of -0.845 ± 0.45.
With HLRYGGFAV the amyloid nucleation score was 0.085 ± 0.2.
For NSAVATYCVVGQVPEK, the amyloid nucleation score was 0.883 ± 0.44.
Substance CFNIQNFELNRVMNLFYCRY has an amyloid nucleation score of 6.37 ± 0.075.
In the case of AMSSA, the amyloid nucleation score is reported as 0.906 ± 0.52.
For LRRASINCKMLGGDVGQVMW, the amyloid nucleation score was 0.404 ± 0.66.
FFRVRPFISYYWHTLLSVLW showed an amyloid nucleation score of -1.24 ± 1.1.
SLVYKGLCILSTLFLYFDFL gave an amyloid nucleation score of -0.337 ± 1.
